Laboratory results taken from publication PMC4329502.

Key:
HER2 antigen = HER2 antigen (UniProt P04626); test: ELISA
[1] = biological target: EGFR1 antigen (Homo sapiens (assumed)) (UniProt P00533); test: ELISA

Substance | Kd (HER2 antigen) [µM] | Kd [1] [µM]
ZHER2:4 affibody (designed binder) | 0.0479 | –
anti-EGFR1 nanobody 7D12 (VHH) | – | 0.0035
